Substitutions are numbered along the chain they refer to. Each block holds one binder with its values, some of them ahead of it.
Key:
[1] = target: HLA-B*35:01_… (HLA-PEPTIDE target G5), soluble (human, enzymatically biotinylated (BirA)); test: scFv PPE ELISA
[2] = target: HLA-A*02:01_… (HLA-PEPTIDE target G8), soluble (human, enzymatically biotinylated (BirA) for screening and BLI); test: scFv PPE ELISA

B1: scFv G5R4-P4A07 (scFv, V domains shown)
VH: QVQLVQSGAEVKKPGASVKVSCKASGYTFTSYYMHWVRQAPGQGLEWMGWMNPNSGNTGYAQKFQGRVTMTRDTSTSTVYMELSSLRSEDTAVYYCARELPIGYGMDVWGQGTTVTVSS
VL: not shown
notes: scFv
fold selective binding, target pHLA vs minipool of negative control pHLAs [1]: ≥ 3 fold

B2: scFv G8-P2C11 (scFv, V domains shown)
VH: QVQLVQSGAEVKKPGASVKVSCKASGYTFTSYAMNWVRQAPGQGLEWMGWINPNSGGTNYAQKFQGRVTMTRDTSTSTVYMELSSLRSEDTAVYYCAKDPFWSGHYYYYGMDVWGQGTTVTVSS
VL: not shown
notes: scFv
fold selective binding, target pHLA vs minipool of negative control pHLAs [2]: ≥ 3 fold

B4: scFv G5R4-P1D06 (scFv, V domains shown)
VH: QVQLVQSGAEVKKPGASVKVSCKASGYTFTSYDINWVRQAPGQGLEWMGWINPNSGDTKYSQKFQGRVTMTRDTSTSTVYMELSSLRSEDTAVYYCARDGTRYYGMDVWGQGTTVTVSS
VL: not shown
notes: scFv
fold selective binding, target pHLA vs minipool of negative control pHLAs [1]: ≥ 3 fold

B5: scFv G5R4-P3G05 (scFv, V domains shown)
VH: QVQLVQSGAEVKKPGASVKVSCKASGYTFTNYYMHWVRQAPGQGLEWMGIINPSGGSTSYAQKFQGRVTMTRDTSTSTVYMELSSLRSEDTAVYYCARSWFGGFNYHYYGMDVWGQGTTVTVSS
VL: DIQMTQSPSSLSASVGDRVTITCQASEDISNHLNWYQQKPGKAPKLLIYDALSLQSGVPSRFSGSGSGTDFTLTISSLQPEDFATYYCQQANSFPFTFGPGTKVDIK
notes: scFv
fold selective binding, target pHLA vs minipool of negative control pHLAs [1]: ≥ 3 fold

B6: scFv G5R4-P4B01 (scFv, V domains shown)
VH: QVQLVQSGAEVKKPGSSVKVSCKASGGTFSSYAISWVRQAPGQGLEWMGGIIPIVGTANYAQKFQGRVTITADESTSTAYMELSSLRSEDTAVYYCARGGSYYYYGMDVWGQGTTVTVSS
VL: not shown
notes: scFv
fold selective binding, target pHLA vs minipool of negative control pHLAs [1]: ≥ 3 fold

B7: scFv G8-P2B05 (scFv, V domains shown)
VH: EVQLLESGGGLVQPGGSLRLSCAASGFDFSIYSMNWVRQAPGKGLEWVSAISGSGGSTYYADSVKGRFTISRDNSKNTLYLQMNSLRAEDTAVYYCASNGNYYGSGSYYNYWGQGTLVTVSS
VL: DIQMTQSPSSLSASVGDRVTITCRASQSISRWLAWYQQKPGKAPKLLIYAASSLQSGVPSRFSGSGSGTDFTLTISSLQPEDFATYYCQQYSTYPITIGQGTKVEIK
notes: scFv
fold selective binding, target pHLA vs minipool of negative control pHLAs [2]: ≥ 3 fold

B9: scFv G5R4-P1H11 (scFv, V domains shown)
VH: EVQLLESGGGLVKPGGSLRLSCAASGFTFSDYYMSWVRQAPGKGLEWVSYISSSSSYTNYADSVKGRFTISRDDSKNTLYLQMNSLKTEDTAVYYCARDVVANFDYWGQGTLVTVSS
VL: EIVMTQSPATLSVSPGERATLSCRASQSVSSNLAWYQQKPGQAPRLLIYAASARASGIPARFSGSGSGTEFTLTISSLQSEDFAVYYCQQYGSWPRTFGQGTKVEIK
notes: scFv
fold selective binding, target pHLA vs minipool of negative control pHLAs [1]: ≥ 3 fold

B11: scFv G5-P4E04 (scFv, V domains shown)
VH: QVQLVQSGAEVKKPGASVKVSCKASGGTFSSYGISWVRQAPGQGLEWMGWINPNSGVTKYAQKFQGRVTMTRDTSTSTVYMELSSLRSEDTAVYYCARGDYYFDYWGQGTLVTVSS
VL: DIQMTQSPSSLSASVGDRVTITCRASQSISRFLNWYQQKPGKAPKLLIYGASRPQSGVPSRFSGSGSGTDFTLTISSLQPEDFATYYCQQSYSTPLTFGQGTKVEIK
notes: scFv
fold selective binding, target pHLA vs minipool of negative control pHLAs [1]: ≥ 3 fold

B16: scFv G5R4-P2B10 (scFv, V domains shown)
VH: QVQLVQSGAEVKKPGASVKVSCKASGGTFSSYAISWVRQAPGQGLEWMGWMNPDSGSTGYAQRFQGRVTMTRDTSTSTVYMELSSLRSEDTAVYYCARGHSSGWYYYYGMDVWGQGTTVTVSS
VL: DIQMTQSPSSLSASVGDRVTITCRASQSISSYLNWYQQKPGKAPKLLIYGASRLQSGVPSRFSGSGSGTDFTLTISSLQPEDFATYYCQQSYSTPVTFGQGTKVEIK
notes: scFv
fold selective binding, target pHLA vs minipool of negative control pHLAs [1]: ≥ 3 fold

B17: scFv G5R4-P2H8 (scFv, V domains shown)
VH: EVQLLESGGGLVQPGGSLRLSCAASGFTFTSYSMHWVRQAPGKGLEWVSSITSFTNTMYYADSVKGRFTISRDNSKNTLYLQMNSLRAEDTAVYYCAKDLGSYGGYYWGQGTLVTVSS
VL: not shown
notes: scFv
fold selective binding, target pHLA vs minipool of negative control pHLAs [1]: ≥ 3 fold

B18: scFv G8-P1C01 (scFv, V domains shown)
VH: QVQLVQSGAEVKKPGASVKVSCKASGGTFSSHAISWVRQAPGQGLEWMGVIIPSGGTSYTQKFQGRVTMTRDTSTSTVYMELSSLRSEDTAVYYCARGDYYDSSGYYFPVYFDYWGQGTLVTVSS
VL: DIQMTQSPSSLSASVGDRVTITCRASQNIYTYLNWYQQKPGKAPKLLIYDASNLETGVPSRFSGSGSGTDFTLTISSLQPEDFATYYCQQANGFPLTFGGGTKVEIK
notes: scFv
fold selective binding, target pHLA vs minipool of negative control pHLAs [2]: ≥ 3 fold

Other lines, results leading:

fold selective binding, target pHLA vs minipool of negative control pHLAs [2]: ≥ 3 fold
B3: scFv R3G8-P5G08 (scFv, V domains shown)
VH: QVQLVQSGAEVKKPGASVKVSCKASGYTFTSNYMHWVRQAPGQGLEWMGWMNPNSGNTGYAQKFQGRVTMTRDTSTSTVYMELSSLRSEDTAVYYCARGLYGDYFLYYGMDVWGQGTTVTVSS
VL: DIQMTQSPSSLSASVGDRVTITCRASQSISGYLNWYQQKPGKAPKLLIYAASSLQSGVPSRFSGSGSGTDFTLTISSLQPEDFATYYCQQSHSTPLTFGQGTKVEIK
notes: scFv

fold selective binding, target pHLA vs minipool of negative control pHLAs [2]: ≥ 3 fold
B8: scFv G8-P2E06 (scFv, V domains shown)
VH: QVQLVQSGAEVKKPGASVKVSCKASGYTLTTYYMHWVRQAPGQGLEWMGWINPNSGGTNYAQKFQGRVTMTRDTSTSTVYMELSSLRSEDTAVYYCARAVYYDFWSGPFDYWGQGTLVTVSS
VL: B7 VL with S28G, R31N, W32S, Y91A, S92N, T93S, Y94F, I96W, I98F, V104L
notes: scFv

fold selective binding, target pHLA vs minipool of negative control pHLAs [2]: ≥ 3 fold
B10: scFv R3G8-P5F02 (scFv, V domains shown)
VH: QVQLVQSGAEVKKPGASVKVSCKASGYTFTGYYIHWVRQAPGQGLEWMGVINPSGGSTTYAQKLQGRVTMTRDTSTSTVYMELSSLRSEDTAVYYCARDRDSSWTYYYYGMDVWGQGTTVTVSS
VL: B9 VL with S30G, S31N, N32S, A50G, A53T, S56T, W94S, R96Y
notes: scFv

fold selective binding, target pHLA vs minipool of negative control pHLAs [2]: ≥ 3 fold
B12: scFv R3G8-P2E04 (scFv, V domains shown)
VH: QVQLVQSGAEVKKPGSSVKVSCKASGGTFSSYGVSWVRQAPGQGLEWMGWISPYSGNTDYAQKFQGRVTITADESTSTAYMELSSLRSEDTAVYYCARGLYYMDVWGKGTTVTVSS
VL: B18 VL with N28S, Y30S, T31S, Y32W, N34A, A91S, N92Y, G93S, F94T, V104L
notes: scFv

fold selective binding, target pHLA vs minipool of negative control pHLAs [2]: ≥ 3 fold
B13: scFv R3G8-P2C10 (scFv, V domains shown)
VH: QVQLVQSGAEVKKPGASVKVSCKASGYTFTSYYMHWVRQAPGQGLEWMGWINPYSGGTNYAQKFQGRVTMTRDTSTSTVYMELSSLRSEDTAVYYCAKGGIYYGSGSYPSWGQGTLVTVSS
VL: B7 VL with S28D, I29V, R31T, Y91S, S92H, T93S, Y94T, I96Q, I98F
notes: scFv

fold selective binding, target pHLA vs minipool of negative control pHLAs [2]: ≥ 3 fold
B14: scFv R3G8-P5C03 (scFv, V domains shown)
VH: QVQLVQSGAEVKKPGASVKVSCKASGYTFTSYYMHWVRQAPGQGLEWMGWMNPNSGNTGYAQKFQGRVTMTRDTSTSTVYMELSSLRSEDTAVYYCARGLLGFGEFLTYGMDVWGQGTLVTVSS
VL: B11 VL with S28G, R31N, F32W, N34A, G50A, R53T, P54L, S91T, L96W, V104L
notes: scFv

fold selective binding, target pHLA vs minipool of negative control pHLAs [2]: ≥ 3 fold
B15: scFv R3G8-P4F05 (scFv, V domains shown)
VH: B3 VH with T30S, S31N, N32M, M34L, M51I, S55T, N57D, G59N, K63T, T118K
VL: B11 VL with S28G, R31N, F32Y, N34A, G50A, R53T, P54L, Q100G
notes: scFv
